Measured values: patent publication US20250320295A1 (INHIBRX BIOSCIENCES, published 2025)

Legend:
[1] = target: T1, Cynomolgus monkey CD8a (cynomolgus monkey); assay: flow cytometry, cynomolgus PBMC, CD3+CD4- gate
T1 construct: whole, on cells; On transfected HEK293F cells (full length) or natively on cynomolgus PBMC T cells; also called cynomolgus CD8a-FL; cynomolgus monkey CD8α
Description: (§1) Binding of parental and two humanized CD8a-binding polypeptides described above was assessed by flow cytometry on isolated human T cells and on isolated cynomolgus monkey PBMC. The isolated cells were plated in a 96-well plate at 200,000 cells per well for cynomolgus monkey PBMC, and 50,000 cells per well for human T cells in FACS buffer (PBS, 1% BSA, 0.1% NaN₃, pH 7.4). […] FACS buffer alone was used as a secondary antibody-only control. Polypeptide dilutions were added to an equal volume of cells, and assay plates were incubated for 30 minutes at 4° C. After washing twice with 150 μL of FACS buffer per well, the cells were resuspended in FACS buffer with fluorescently-labeled anti-human antibody diluted 1:1000 to detect CD8α binding, and fluorescently labeled anti-CD3 antibody (clone SP34.2) diluted 1:40, and anti-CD4 antibody (clone OKT4) diluted 1:100. Assay plates were incubated at 4° C. for 20 minutes. After one additional wash with 150 μL of FACS buffer, CD8α binding was detected by flow cytometry on CD3+CD4− cells. Binding was measured on these cell populations as mean fluorescence at 647 nm. The data was plotted and analyzed using GraphPad Prism analysis software. Flow cytometric detection was performed on an ACEA Biosciences Novocyte-Quanteon Flow Cytometer. The results are shown in Table 6 and 7 and in FIGS. 4A-B.

[2] = target: T2, Human CD8a (human, UniProt P01732 22-235); assay: flow cytometry, isolated human T cells, CD3+CD4- gate
T2 construct: also called CD8α; human CD8a-FL
Description: as §1

[3] = target: T2, Human CD8a; assay: flow cytometry, isolated human T cells, CD4- gate, anti-human Fc detection
Description: FACS buffer with no polypeptide was used as a secondary antibody-only control. Polypeptide dilutions were added to an equal volume of cells, and assay plates were incubated for 30 minutes at 4° C. […] Assay plates were incubated at 4° C. for 20 minutes. […] The data was plotted and analyzed using GraphPad Prism analysis software. Flow cytometric detection was performed on an Intellicyt iQue Plus.

[4] = target: T2, Human CD8a; assay: flow cytometry, HEK293F cells transfected with full-length human CD8a (GFP+ gate)
Description: (§2) Binding of parental and two of the humanized CD8a-binding polypeptides described above was assessed by flow cytometry on transfected HEK293F cells. The HEK293F cells were transiently transfected with a plasmid encoding full length human or cynomolgus monkey CD8α followed by an IRES and GFP. The transfected cells were plated in a 96-well plate at 30,000 cells per well in FACS buffer (PBS, 1% BSA, 0.1% NaN₃, pH 7.4). Test polypeptides were then diluted to 2× the final concentration of 500 nM and 3-, 4-, and 5-fold serial dilutions were made. FACS buffer with no polypeptide was used as a secondary antibody-only control. Test polypeptides were added to an equal volume of cells, and assay plates were incubated for 30 minutes at 4° C. After washing twice with 150 μL of FACS buffer per well, the cells were resuspended in FACS buffer with fluorescently-labeled anti-human Fc antibody diluted 1:2000. Assay plates were incubated at 4° C. for 20 minutes. After one additional wash with 150 μL of FACS buffer, bound polypeptide was detected by flow cytometry. Flow cytometric detection was performed on an Intellicyt iQue Plus. CD8a-expressing transfected cells were gated as GFP positive, and polypeptide binding was measured as median fluorescence at 647 nm. The data was plotted and analyzed using GraphPad Prism analysis software.

[5] = target: T1, Cynomolgus monkey CD8a; assay: flow cytometry, HEK293F cells transfected with full-length cynomolgus CD8a (GFP+ gate)
Description: as §2

T2 sequence (P01732 22-235): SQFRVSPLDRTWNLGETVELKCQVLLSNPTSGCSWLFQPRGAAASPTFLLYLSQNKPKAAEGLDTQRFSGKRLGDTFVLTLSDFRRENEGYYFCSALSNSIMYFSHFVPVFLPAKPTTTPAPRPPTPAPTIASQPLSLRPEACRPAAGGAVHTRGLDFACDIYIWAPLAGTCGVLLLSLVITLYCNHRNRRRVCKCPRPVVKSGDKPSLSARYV

Kd [1]: 0.0737 nM
Kd [2]: 0.085 nM
Kd [3]: 0.106 nM
Kd [4]: 0.565 nM
Kd [5]: 0.0973 nM
B1: hzB7v10-xELL-Fc (Fc fusion)
chain: EVQLVESGGGEVQPGGSLRLSCAASGFTFDDYAMSWVRQAPGKGLEWVSTITWEGEGTDYAESVKGRFTISRDNAKNTVYLQMSSLRAEDTAVYYCAKGSPELQYDSWGQGTLVTVKPGGDKTHTCPPCPAPGGPSVFLFPPKPKDTLMISRTPEVTCVVVDVSHEDPEVKFNWYVDGVEVHNAKTKPREEQYNSTYRVVSVLTVLHQDWLNGKEYKCKVSNKALPAPIEKTISKAKGQPREPQVYTLPPSRDELTKNQVSLTCLVKGFYPSDIAVEWESNGQPENNYKTTPPVLDSDGSFFLYSKLTVDKSRWQQGNVFSCSVMHEALHNHYTQKSLSLSPGK
notes: Homodimeric VHH-human IgG1 Fc xELL fusion
